The values that follow come from US9523084B2, “Phosphodeoxyribosyl transferase mutant enzymes and uses thereof” (Centre National De La Recherche Scientifique, priority 2012, dated 2016).

Residue numbers refer to the chain shown, from its start. Names and notes keep the numbering of the source.

Data set [1] can be described thus: Standard enzyme assay (HPLC): specific activities of PDT variants with natural purines and pyrimidines. Format: biochemical. The conditions noted are these: for Specific activity: donor 3 mM, acceptor 1 mM; for factor of enhancement of deoxyribose 5-phosphate transferase activity between C and A: upon substitution of F13 to arginine (PDTM3 from PDTM1, PDTM4 from PDTM2). As to the method:
(§1) The standard assay (“first protocol for enzyme assay”) for the different NDTs consisted of 5-15 μg of NDT in 50 mM MES buffer pH 6.0, dNxP (dNMP, or dNDP or dNTP) 3 mM and a base 1 mM in a total volume of 50 μL. Assays were incubated for 60 min at 37° C. The products of the reactions were analyzed each 7 min by Rapid resolution high performance liquid chromatography using a reverse-phase column (ZORBAX Eclipse XDB-C18 2.1*50 mm 1.8 μM) with a flow rate of 0.25 ml/min and a linear gradient of 1-12% CH3CN (2-25% CH3CN or 1-90% CH3CN) in 20 mM triethylammonium acetate, pH 7.5, buffer for 7 min. The low resolution mass spectra of the newly synthesized deoxyribonucleotides were obtained on an Agilent 1200 series LC/MS 6120 quadrupole system using an atmospheric electrospray ionization system.
Unless specifically mentioned, the results presented hereafter have been obtained by using the first protocol for performing the enzyme assay.

The nature of data set [2]: In vitro synthesis of deoxynucleotide analogues: specific activities. Format: biochemical. How it is done: as §1
The donor concentration was 3 mM and the acceptor 1 mM except for dCTP 2 mM 5-BrU 1 mM and dAMP 2 mM 5-FU 1 mM. Activities are expressed in nanomoles of deoxynucleotides synthesized per min per mg of protein.

B1: PDTM3: NDT mutant R13 S92, SEQ ID NO:5 (protein)
chain: MPKKTIYFGAGWRTDRQNKAYKEAMEALKENPTIDLENSYVPLDNQYKGIRVDEHPEYLHDKVWATATYNNDLNGIKTNDIMLGVYIPDEESVGLGMELGYALSQGKYVLLVIPDEDYGKPINLMSWGVSDNVIKMSQLKDFNFNKPRFDFYEGAVY
modifications: PDTM3 enzyme mutant
As to B1, the Specific activity was 34.7 nanomoles of deoxynucleotides synthesized per min per mg of protein in data set [1] (dAMP + C ⇄ dCMP + A); 2 nanomoles of deoxynucleotides synthesized per min per mg of protein in data set [1] (dAMP + Hx ⇄ dIMP + A); 79.7 nanomoles of deoxynucleotides synthesized per min per mg of protein in data set [1] (dCMP + A ⇄ dAMP + C); 18.2 nanomoles of deoxynucleotides synthesized per min per mg of protein in data set [1] (dCMP + T ⇄ dTMP + C); 8.5 nanomoles of deoxynucleotides synthesized per min per mg of protein in data set [1] (dGMP + A ⇄ dAMP + G). Further, the “fold lower activity than between C and A” value is recorded as “two-fold” in data set [1] (transfer of deoxyribose 5-phosphate between A and C); 4 fold in data set [1] (transfer of deoxyribose 5-phosphate between C and T). Besides, the “factor of enhancement of deoxyribose 5-phosphate transferase activity between C and A” value in data set [1] is given as 50.

B2: PDTM4: NDT mutant R13 S92 S123, SEQ ID NO:6 (protein)
chain: B1 chain with N123S
modifications: PDTM4 enzyme mutant
Consider B2, for which the Specific activity was 43 nanomoles of deoxynucleotides synthesized per min per mg of protein in data set [2] (dAMP + 5-FU → A + 5-F-dUMP, dAMP 2 mM 5-FU 1 mM); 96 nanomoles of deoxynucleotides synthesized per min per mg of protein in data set [2] (dCMP + 2,6-D → C + 2,6-DMP, donor 3 mM, acceptor 1 mM); 32 nanomoles of deoxynucleotides synthesized per min per mg of protein in data set [2] (dCMP + 2,6-chloropurine → C + 2,6-dichloropurine 2′-deoxyribose 5′-monophosphate, donor 3 mM, acceptor 1 mM); 35 nanomoles of deoxynucleotides synthesized per min per mg of protein in data set [2] (dCMP + 5-BrU → C + 5-Br-dUMP, donor 3 mM, acceptor 1 mM); 24 nanomoles of deoxynucleotides synthesized per min per mg of protein in data set [2] (dCMP + 6-chloropurine → C + 6-chloropurine 2′-deoxyribose 5′-monophosphate, donor 3 mM, acceptor 1 mM); 77.6 nanomoles of deoxynucleotides synthesized per min per mg of protein in data set [1] (dAMP + C ⇄ dCMP + A). The Specific activity in data set [1] (dAMP + Hx ⇄ dIMP + A) is recorded as <0.1 nanomoles of deoxynucleotides synthesized per min per mg of protein; in data set [1] (dCMP + A ⇄ dAMP + C), 170 nanomoles of deoxynucleotides synthesized per min per mg of protein; in data set [1] (dCMP + T ⇄ dTMP + C), 52 nanomoles of deoxynucleotides synthesized per min per mg of protein; in data set [1] (dGMP + A ⇄ dAMP + G) it was 57 nanomoles of deoxynucleotides synthesized per min per mg of protein. The “factor of enhancement of deoxyribose 5-phosphate transferase activity between C and A” value in data set [1] was 50. Also, the “activity relative to PDTM3” value in data set [1] (whatever the couple of bases tested) was “two times more active than PDTM3”.

B3: PDTT0: NDT mutant R13 G92 T93 S123, SEQ ID NO:8 (protein)
chain: B1 chain with S92G, V93T, N123S
modifications: PDTT0 enzyme mutant
Regarding B3, the Specific activity in data set [1] (dAMP + C ⇄ dCMP + A) is given as 23.7 nanomoles of deoxynucleotides synthesized per min per mg of protein; in data set [1] (dAMP + Hx ⇄ dIMP + A) it was <0.1 nanomoles of deoxynucleotides synthesized per min per mg of protein; in data set [1] (dCDP + A ⇄ dADP + C) it was <0.1 nanomoles of deoxynucleotides synthesized per min per mg of protein; in data set [1] (dCMP + A ⇄ dAMP + C), 46.3 nanomoles of deoxynucleotides synthesized per min per mg of protein; in data set [1] (dCMP + T ⇄ dTMP + C) it was <0.1 nanomoles of deoxynucleotides synthesized per min per mg of protein; in data set [1] (dCTP + A ⇄ dATP + C), <0.1 nanomoles of deoxynucleotides synthesized per min per mg of protein. In addition, in data set [1] (dGMP + A ⇄ dAMP + G), the Specific activity was 49 nanomoles of deoxynucleotides synthesized per min per mg of protein.

B4: PDTT1: NDT mutant R13 G92 T93 S123 K157, SEQ ID NO:9 (protein)
chain: B1 chain with S92G, V93T, N123S, Y157K
modifications: PDTT1 enzyme mutant
For the molecule B4, the Specific activity is listed as 12 nanomoles of deoxynucleotides synthesized per min per mg of protein in data set [1] (dADP + C ⇄ dCDP + A); <0.1 nanomoles of deoxynucleotides synthesized per min per mg of protein in data set [1] (dADP + Hx ⇄ dIDP + A); 5 nanomoles of deoxynucleotides synthesized per min per mg of protein in data set [1] (dAMP + C ⇄ dCMP + A); <0.1 nanomoles of deoxynucleotides synthesized per min per mg of protein in data set [1] (dAMP + Hx ⇄ dIMP + A); 1 nanomoles of deoxynucleotides synthesized per min per mg of protein in data set [1] (dATP + C ⇄ dCTP + A); <0.1 nanomoles of deoxynucleotides synthesized per min per mg of protein in data set [1] (dATP + Hx ⇄ dITP + A). In addition, the Specific activity is recorded as 31 nanomoles of deoxynucleotides synthesized per min per mg of protein in data set [1] (dCDP + A ⇄ dADP + C); 6 nanomoles of deoxynucleotides synthesized per min per mg of protein in data set [1] (dCDP + U ⇄ dUDP + C (U used as acceptor base instead of T)); 78 nanomoles of deoxynucleotides synthesized per min per mg of protein in data set [1] (dCMP + A ⇄ dAMP + C); <0.1 nanomoles of deoxynucleotides synthesized per min per mg of protein in data set [1] (dCMP + T ⇄ dTMP + C); 10 nanomoles of deoxynucleotides synthesized per min per mg of protein in data set [1] (dCTP + A ⇄ dATP + C); 1 nanomoles of deoxynucleotides synthesized per min per mg of protein in data set [1] (dCTP + T ⇄ dTTP + C). Further, the Specific activity in data set [1] (dGDP + A ⇄ dADP + G) is 15 nanomoles of deoxynucleotides synthesized per min per mg of protein; in data set [1] (dGMP + A ⇄ dAMP + G), 32 nanomoles of deoxynucleotides synthesized per min per mg of protein; in data set [1] (dGTP + A ⇄ dATP + G), 25 nanomoles of deoxynucleotides synthesized per min per mg of protein.

B5: PDTM1: NDT single mutant D92S, SEQ ID NO:3 (protein)
chain: B1 chain with R13F
modifications: PDTM1 enzyme mutant
Take B5: the Specific activity in data set [1] (dCMP + A ⇄ dAMP + C) is 1.8 nanomoles of deoxynucleotides synthesized per min per mg of protein.

B6: PDTM2: NDT double mutant D92S, N123S, SEQ ID NO:4 (protein)
chain: B1 chain with R13F, N123S
modifications: PDTM2 enzyme mutant
Regarding B6, the Specific activity in data set [1] (dCMP + A ⇄ dAMP + C) is 1.7 nanomoles of deoxynucleotides synthesized per min per mg of protein.

B7: NDTWT: wild-type nucleoside deoxyribosyltransferase of Lactobacillus leichmannii, SEQ ID NO:1 (F13E91D92V93N123Y157) (protein, listed as Lactobacillus leichmannii)
chain: B1 chain with R13F, S92D
On to B7, for which the Specific activity in data set [1] (dCMP + A ⇄ dAMP + C) is listed as 0.1 nanomoles of deoxynucleotides synthesized per min per mg of protein.
